Experiments:
[1] = biological target: T1, 6×HIS-LIN28A (1-124), Q9H9Z2
T1 chain: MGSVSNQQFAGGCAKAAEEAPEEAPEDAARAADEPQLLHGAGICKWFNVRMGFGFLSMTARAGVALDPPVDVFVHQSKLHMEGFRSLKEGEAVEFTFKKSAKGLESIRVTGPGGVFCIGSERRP

[2] = biological target: T2, 6×HIS-LIN28A (125-156), Q9H9Z2
T2 chain: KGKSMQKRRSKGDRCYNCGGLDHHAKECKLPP

[3] = biological target: T3, 6×HIS-LIN28A (125-209), Q9H9Z2
T3 chain: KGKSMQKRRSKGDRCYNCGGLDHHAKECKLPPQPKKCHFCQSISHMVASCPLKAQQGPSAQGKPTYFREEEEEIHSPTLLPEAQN

[4] = biological target: T4, 6×HIS-LIN28A (157-209), Q9H9Z2
T4 chain: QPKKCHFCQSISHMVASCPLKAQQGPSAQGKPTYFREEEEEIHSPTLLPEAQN

[5] = biological target: T5, 6×HIS-LIN28A-K135R, Q9H9Z2
T5 chain: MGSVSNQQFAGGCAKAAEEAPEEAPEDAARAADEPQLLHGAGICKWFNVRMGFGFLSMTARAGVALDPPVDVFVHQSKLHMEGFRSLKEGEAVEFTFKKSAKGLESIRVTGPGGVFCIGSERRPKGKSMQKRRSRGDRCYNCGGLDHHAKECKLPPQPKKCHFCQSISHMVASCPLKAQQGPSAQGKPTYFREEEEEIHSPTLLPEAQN

[6] = biological target: T6, 6×HIS-labeled human LIN28A (full-length), Q9H9Z2
T6 chain: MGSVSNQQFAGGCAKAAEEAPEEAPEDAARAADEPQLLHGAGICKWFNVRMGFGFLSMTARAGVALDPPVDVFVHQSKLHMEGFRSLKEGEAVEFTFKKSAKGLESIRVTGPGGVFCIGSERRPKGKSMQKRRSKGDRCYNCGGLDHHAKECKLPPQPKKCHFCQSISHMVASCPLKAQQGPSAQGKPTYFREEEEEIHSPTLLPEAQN

[7] = biological target: T7, full-length 6×HIS-LIN28B, Q6ZN17
T7 chain: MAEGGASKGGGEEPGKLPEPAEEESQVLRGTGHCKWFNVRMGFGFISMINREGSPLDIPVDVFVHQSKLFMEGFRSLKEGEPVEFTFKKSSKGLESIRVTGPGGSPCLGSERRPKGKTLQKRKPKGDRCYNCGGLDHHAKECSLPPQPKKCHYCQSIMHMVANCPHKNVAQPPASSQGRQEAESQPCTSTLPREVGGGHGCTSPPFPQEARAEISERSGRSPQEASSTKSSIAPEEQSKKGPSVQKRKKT

B1: recombinant full-length SET7/9 expressed in bacteria (protein)
chain: MDSDDEMVEEAVEGHLDDDGLPHGFCTVTYSSTDRFEGNFVHGEKNGRGKFFFFDGSTLEGYYVDDALQGQGVYTYEDGGVLQGTYVDGELNGPAQEYDTDGRLIFKGQYKDNIRHGVCWIYYPDGGSLVGEVNEDGEMTGEKIAYVYPDERTALYGKFIDGEMIEGKLATLMSTEEGRPHFELMPGNSVYHFDKSTSSCISTNALLPDPYESERVYVAESLISSAGEGLFSKVAVGPNTVMSFYNGVRITHQEVDSRDWALNGNTLSLDEETVIDVPEPYNHVSKYCASLGHKANHSFTPNCIYDMFVHPRFGPIKCIRTLRAVEADEELTVAYGYDHSPPGKSGPEAPEWYQVELKAFQATQQK
methylation (in vitro methyl transferase assay) [1]: LIN28A (1-124) and (157-209) without lysine 135 were not methylated
methylation (in vitro methyl transferase assay) [2]: only LIN28A (125-209) and (125-156) having lysine 135 among 4 fragments were methylated by SET7/9
methylation (in vitro methyl transferase assay) [3]: only LIN28A (125-209) and (125-156) having lysine 135 among 4 fragments were methylated by SET7/9
methylation (in vitro methyl transferase assay) [4]: LIN28A (1-124) and (157-209) without lysine 135 were not methylated
methylation (in vitro methyl transferase assay) [5]: a methylation reaction by SET7/9 was completely removed in K135 mutant
enzyme activity (in vitro methyltransferase assay with [3H] SAM) [6]: all HMTases except for SET7/9 did not show enzyme activity with respect to LIN28A
methylation (in vitro methyltransferase assay with [3H] SAM) [6]: LIN28A was methylated by SET7/9 in vitro
methylation (in vitro methyl transferase analysis) [7]: LIN28B was not methylated by SET7/9

Source: US20160053258
